Test results: paper PMC9485241, “Biosynthesis of plant hemostatic dencichine in Escherichia coli” (Nature Communications, 2022)

Columns and labels:
Assay in all cases: purified protein
[1] = test system: O=C(O)CC(=O)C(=O)O; details: 0.18 mM MnCl2, 100 mM Tris-HCl pH 8.0
[2] = test system: NC[C@H](N)C(=O)O; details: oxalyl-CoA made in situ by excess PanE from 1 mM CoA, 1 mM NADP+, 1 mM glyoxylate, 50 mM Tris-HCl pH 7.5, 30 °C
[3] = substrate: O=CC(=O)O; type: biochemical, Saccharomyces cerevisiae; details: 2 mM cytochrome c, 100 mM sodium phosphate pH 7.5

Molecule: Fpoah (Fomitopsis palustris)
- Km [1]: 0.42 mM
- Vmax [1]: 22.8 µM/min/mg

Molecule: LsBAHD (Lathyrus sativus)
- Km [2]: 0.52 mM
- Vmax [2]: 2.88 µM/min/mg

B1: Scgloxdh (Cyb2p) (Saccharomyces cerevisiae S288C) (protein)
chain: EPKLDMNKQKISPAEVAKHNKPDDCWVVINGYVYDLTRFLPNHPGGQDVIKFNAGKDVTAIFEPLHAPNVIDKYIAPEKKLGPLQGSMPPELVCPPYAPGETKEDIARKEQLKSLLPPLDNIINLYDFEYLASQTLTKQAWAYYSSGANDEVTHRENHNAYHRIFFKPKILVDVRKVDISTDMLGSHVDVPFYVSATALCKLGNPLEGEKDVARGCGQGVTKVPQMISTLASCSPEEIIEAAPSDKQIQWYQLYVNSDRKITDDLVKNVEKLGVKALFVTVDAPSLGQREKDMKLKFSNTKAGPKAMKKTNVEESQGASRALSKFIDPSLTWKDIEELKKKTKLPIVIKGVQRTEDVIKAAEIGVSGVVLSNHGGRQLDFSRAPIEVLAETMPILEQRNLKDKLEVFVDGGVRRGTDVLKALCLGAKGVGLGRPFLYANSCYGRNGVEKAIEILRDEIEMSMRLLGVTSIAELKPDLLDLSTLKARTVGVPNDVLYNEVYEGPTLTEFEDA
- Km [3]: 0.74 mM
- Vmax [3]: 0.66 µM/min/mg
